Here are results for 84 variants from the RNAGym collection of RNA variant scans (doi:10.1073/pnas.2313332121).

B1: TPR 5TU (parent)
chain: GGAUCUUCUCGAUCUAACAAAAAAGACAAAUCUGCCACAAAGCUUGAGAGCAUCUUCGGAUGCAGAGGCGGCAGCCUUCGGUGGCGCGAUAGCGCCAACGUUCUCAACUAUGACACGCAAAACGCGUGCUCCGUUGAAUGGAGUUUAUCAUG

Fewer inactive variants are shown than the library holds.

The data set covers variants of B1. The data set is described as follows: polymerase ribozyme fitness, log enrichment relative to wild type (log ratio); higher = more active; in vitro selection for triplet polymerase activity. In a few lines: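 Only genotypes with ≥10 input reads and ≥1 read per output were kept after Illumina sequencing of input and output libraries. These libraries were PCR-built, transcribed mutants of each subunit of a heterodimeric triplet polymerase ribozyme, each put through one triplicate in vitro selection round with frozen incubation at −7 °C, gel excision of extended constructs, streptavidin-bead capture and RT-PCR. Fitness is a logarithmic ratio of genotype enrichment to wild-type enrichment, from inverse-variance-weighted replicate averages, with the logarithm in base 2.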
With G71U A89U C95A, the “polymerase ribozyme fitness (log ratio)” value is -3.94.
With A16G G48A C57A C76U A89C C95A C116G C131A G136C the figure was at most -4.2; with G50C C54U U56A G59U, -3.48; with A24U U45G G86A, -2.58.
The figure for A39C G58C A97U A98C C125U is -3.95; for A16U G94A it is -2.47; for A26U A49G U101G A120G A147C it is at most -4.2.
The figure for G81A C105G A121U is -1.1; for A49U C51A U55G C95A it is -2.79.
With A107U G141C, the “polymerase ribozyme fitness (log ratio)” value was -3.87.
Turning to U13C G88A C99G, the “polymerase ribozyme fitness (log ratio)” value was -4.01.
With C96G C116A A138C A147C the figure was -3.36.
For G11U A23U G68A U130G U135C, the “polymerase ribozyme fitness (log ratio)” value is at most -4.2.
With C54U A66G C72U G81C C96A A107G G133U U145A, the “polymerase ribozyme fitness (log ratio)” value was at most -4.2.
With C43G A49C C51U G62A G88A A91G C125U A137G, the “polymerase ribozyme fitness (log ratio)” value is at most -4.2.
Turning to A40C A49U A52U A60G G83U, the “polymerase ribozyme fitness (log ratio)” value was at most -4.2.
As to C35U C93G, the “polymerase ribozyme fitness (log ratio)” value is -3.19.
Take C8U C87A: the “polymerase ribozyme fitness (log ratio)” value is at most -4.2.
Turning to G126U U135C, the “polymerase ribozyme fitness (log ratio)” value was -1.61.
Consider A49C G50U U78G C85U A97G U102G A107U A142C, for which the “polymerase ribozyme fitness (log ratio)” value is at most -4.2.
With A37G A60U G81A A97C A137G the figure was -4.19; with C85U A120G G124U G143C, -3.46.
With A21U C51U G126U the figure was 0.375; with U53G C54A, -2.07.
For G46C A64G A91C, the “polymerase ribozyme fitness (log ratio)” value was at most -4.2.
With C14U A23C U101C U102A U151G the figure was at most -4.2.
The figure for A52C C76G is at most -4.2; for C14U G140A it is at most -4.2; for A41C A52G G86U it is -2.67.
For the variant A47C U56A U78A U90G, the “polymerase ribozyme fitness (log ratio)” value was at most -4.2.
Turning to U53A G67C C76G G84A C114U, the “polymerase ribozyme fitness (log ratio)” value is -4.1.
With U4G A41U G50C C85G the figure was at most -4.2; with C54G C76A C85G, -2.78.
With G50A C125A the figure was -1.79; with G11C C35G A52U C63A G94A C131U, at most -4.2.
In the case of A40C C75A C114G, the “polymerase ribozyme fitness (log ratio)” value is at most -4.2.
With C54U A64G C116G U139G the figure was at most -4.2; with C5U C38G C57U G84U A106C, -3; with A22C G42U A73U G81C A91U C96U A107G G143C, at most -4.2.
As for C8U C95U C116G U135A, the “polymerase ribozyme fitness (log ratio)” value was -3.94.
As to G58C G83A C93U, the “polymerase ribozyme fitness (log ratio)” value was -2.03.
With G70A C75U C87G C99G C103A G140U U144G U146G the figure was at most -4.2; with U61A C76U U102G U109C, at most -4.2; with U53A G92C U102C, -3.58.
A113C U148C: the “polymerase ribozyme fitness (log ratio)” value is -3.73.
As to C125G, the “polymerase ribozyme fitness (log ratio)” value is -0.473.
With C36U C93U C96G C114G C116A A138C U139G U148C G152A the figure was -4.1; with C32U A49C A52G G58U G62C C131G, at most -4.2; with G81U U82C C95U A120U, -0.64.
The figure for U9C C93A is at most -4.2; for A16C C95U it is -0.661; for C36U A47G G68C G133C it is at most -4.2.
With U44G G70C G140U the figure was at most -4.2.
As to A17U C93G U102A A107C G143A, the “polymerase ribozyme fitness (log ratio)” value was at most -4.2.
The figure for C105U U135A is 0.0587; for C54U U144A it is -0.258; for U53G A73C G83U G117U it is at most -4.2.
As to A26U U31G G42C C93G A137G, the “polymerase ribozyme fitness (log ratio)” value was at most -4.2.
As to A26U C54A G65A A98G, the “polymerase ribozyme fitness (log ratio)” value was -4.2.
The figure for A21C C72G A73U C93U C99G G126U is at most -4.2.
The figure for G59C C93U is -1.11.
On to A21U C76G, for which the “polymerase ribozyme fitness (log ratio)” value was at most -4.2.
For C10A G11U A30U C36A G48A C87G A122G, the “polymerase ribozyme fitness (log ratio)” value was at most -4.2.
Take A73C C93G: the “polymerase ribozyme fitness (log ratio)” value was at most -4.2.
With A20C C87A the figure was at most -4.2; with A20C C87U, -1.36.
Regarding C36A A39G G59U C85A A98U A107C, the “polymerase ribozyme fitness (log ratio)” value was at most -4.2.
With G11U A19C G68A G74A C87A C149G the figure was at most -4.2; with A19U A60U C93U C114U, -4.17.
The figure for A73C G92C is -3.64; for C57G C87A U144C it is -3.75.
The figure for A89C A150C is -3.81.
As to A49C U56A C69A C99A, the “polymerase ribozyme fitness (log ratio)” value is at most -4.2.
The figure for C5G A30U G59A C87G C108U U148A is at most -4.2; for C35A C57U C85U C118U G128A G152U it is -3.96.
With A29U C95A the figure was -3.68; with A12U C18G C63G G83U U111G, at most -4.2; with C43G G86A, at most -4.2.
For A19G C57A G65A, the “polymerase ribozyme fitness (log ratio)” value was -2.01.
In the case of C18G G25C U33C C108G, the “polymerase ribozyme fitness (log ratio)” value is -3.95.
The figure for G58U A60C C105G U148G is at most -4.2; for A12C A16C U31C C32G U53A C93G C118G U151C it is at most -4.2.
The figure for U6G G11A is -0.786; for A29U G46U G70U U90G C95U A115G G117U A120U it is at most -4.2.
